According to patent US7041458B2, “Methods and reagents for determining protein S” (priority 1996, dated 2006):

Tests used:
[1] = target: T1, protein S (Homo sapiens, UniProt P07225); experiment: Binding of protein S to the binding site on C4BPβ in the presence of physiological calcium
T1 sequence (P07225 42-676): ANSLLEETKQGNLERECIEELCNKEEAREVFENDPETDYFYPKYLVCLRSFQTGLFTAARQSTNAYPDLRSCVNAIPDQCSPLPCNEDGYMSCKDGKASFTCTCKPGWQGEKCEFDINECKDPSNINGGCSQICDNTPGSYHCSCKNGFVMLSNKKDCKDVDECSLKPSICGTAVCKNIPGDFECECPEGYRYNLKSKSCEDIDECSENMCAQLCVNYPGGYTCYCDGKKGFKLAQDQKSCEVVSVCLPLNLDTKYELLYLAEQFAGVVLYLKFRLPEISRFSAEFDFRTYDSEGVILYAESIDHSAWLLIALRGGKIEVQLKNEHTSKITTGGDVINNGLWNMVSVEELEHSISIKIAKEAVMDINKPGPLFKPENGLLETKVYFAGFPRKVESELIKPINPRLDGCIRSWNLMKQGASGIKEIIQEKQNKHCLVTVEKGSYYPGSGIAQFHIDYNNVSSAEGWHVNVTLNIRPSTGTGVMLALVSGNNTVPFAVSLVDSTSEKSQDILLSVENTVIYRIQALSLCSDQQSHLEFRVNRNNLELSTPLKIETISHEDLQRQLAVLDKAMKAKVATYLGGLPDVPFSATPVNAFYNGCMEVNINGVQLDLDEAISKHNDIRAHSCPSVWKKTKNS
Method: Even though it is possible to design C4BP-like molecules which could be very efficient as catching ligands in assays for free protein S, suitable embodiments of the invention are based on use of the entire C4BP molecule or, rather, C4BP species comprising the β-chain, i.e. C4BPβ, as ligands in such assays. Since the binding site on C4BPβ binds protein S with very high affinity (KD=0.1 nM) in the presence of physiological calcium concentrations, the association rate constant in the presence of calcium ions being high (almost 10^5 M^−1 s−^1) and the dissociation rate constant being low (approximately 5×10^−4 s−^1), C4BPβ (containing an unoccupied protein S binding site on the β-chain) is a highly specific and efficient ligand for free protein S and is able to specifically bind to free protein S in a solution containing both free protein S and PS:C4BP complexes.

[2] = target: T2, free protein S (Homo sapiens, UniProt P07225); experiment: Addition of C4BP to human plasma, free protein S measured with the assay of Example 2; type: binding; settings: two-fold molar excess of C4BP compared to free protein S, 1 hour at 37° C.
T2 construct: from tissue; host or cells: human plasma
T2 sequence (P07225 42-676): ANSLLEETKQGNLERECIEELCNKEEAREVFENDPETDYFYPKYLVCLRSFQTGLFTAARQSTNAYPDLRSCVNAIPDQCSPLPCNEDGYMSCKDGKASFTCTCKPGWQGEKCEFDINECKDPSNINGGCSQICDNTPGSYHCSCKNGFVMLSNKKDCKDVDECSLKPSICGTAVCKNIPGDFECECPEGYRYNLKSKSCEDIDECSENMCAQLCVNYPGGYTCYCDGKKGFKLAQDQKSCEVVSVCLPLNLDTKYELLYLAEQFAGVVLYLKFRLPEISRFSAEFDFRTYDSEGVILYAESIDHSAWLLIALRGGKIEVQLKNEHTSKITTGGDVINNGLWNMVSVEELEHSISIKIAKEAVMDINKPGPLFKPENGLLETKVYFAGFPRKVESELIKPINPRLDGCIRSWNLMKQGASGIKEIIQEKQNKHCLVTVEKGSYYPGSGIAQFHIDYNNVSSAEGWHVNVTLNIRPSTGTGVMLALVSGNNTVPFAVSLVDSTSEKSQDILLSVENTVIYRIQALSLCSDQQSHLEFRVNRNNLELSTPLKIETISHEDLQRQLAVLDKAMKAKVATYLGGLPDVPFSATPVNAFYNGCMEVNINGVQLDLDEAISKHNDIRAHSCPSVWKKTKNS
Method: Assay procedure: Aliquots (50 μl) of the sample to be analyzed (for patient plasma usually 1:100 dilutions of plasma, the buffer for dilution being TBS containing 1% BSA, 2 mM calciumchloride and 1 mM benzamidine) were added to the wells of C4BP-microtiter plates and incubated at room temperature for 30 minutes. The wells were then washed with TBS-wash-ing buffer and biotinylated monoclonal antibody HPS54 (diluted 1:1000, corresponding to about 0.1–1 μg/ml, in TBS containing 1% BSA, 2 mM calcium chloride) was added. Unbound HPS54 was washed away with 3×TBS-washing buffer. Peroxidase-conjugated streptavidine (from Dakopatts AS and prepared according to the manufacturers instructions and diluted 1:2500) (50 μl/well) was added and incubated 15 minutes at room temperature before unbound complexes were washed away with 3×TBS-washing buffer. Aliquots (100 μl/well) of the peroxidase substrate OPD (1,2-ortho-phenylene diamine in the form of 2 mg tablets from Dakopatts A/S) at 1.5 mg/ml in 0.1 M citric acid-phosphate buffer, pH 5.0 (prepared according to instructions from Dakopatts) was added together with H2O2 (0.015%). After exactly 5 minutes, the reaction was stopped by 100 μl/well of 1 M H2SO4 and the absorbance was measured at 490 nm.
To test the specificity of the assay for free protein S, two different experiments were performed. […]

B1: C4BPβ: species of C4b-binding protein containing the protein S binding β-chain, isolated from human plasma (protein)
chain 1: NCGPPPTLSFAAPMDITLTETRFKTGTTLKYTCLPGYVRSHSTQTLTCNSDGEWVYNTFCIYKRCRHPGELRNGQVEIKTDLSFGSQIEFSCSEGFFLIGSTTSRCEVQDRGVGWSHPLPQCEIVKCKPPPDIRNGRHSGEENFYAYGFSVTYSCDPRFSLLGHASISCTVENETIGVWRPSPPTCEKITCRKPDVSHGEMVSGFGPIYNYKDTIVFKCQKGFVLRGSSVIHCDADSKWNPSPPACEPNSCINLPDIPHASWETYPRPTKEDVYVVGTVLRYRCHPGYKPTTDEPTTVICQKNLRWTPYQGCEALCCPEPKLNNGEITQHRKSRPANHCVYFYGDEISFSCHETSRFSAICQGDGTWSPRTPSCGDICNFPPKIAHGHYKQSSSYSFFKEEIIYECDKGYILVGQAKLSCSYSHWSAPAPQCKALCRKPELVNGRLSVDKDQYVEPENVTIQCDSGYGVVGPQSITCSGNRTWYPEVPKCEWETPEGCEQVLTGKRLMQCLPNPEDVKMALEVYKLSLEIEQLELQRDSARQSTLDKEL
chain 2: SDAEHCPELPPVDNSIFVAKEVEGQILGTYVCIKGYHLVGKKTLFCNASKEWDNTTTECRLGHCPDPVLVNGEFSSSGPVNVSDKITFMCNDHYILKGSNRSQCLEDHTWAPPFPICKSRDCDPPGNPVHGYFEGNNFTLGSTISYYCEDRYYLVGVQEQQCVDGEWSSALPVCKLIQEAPKPECEKALLAFQESKNLCEAMENFMQQLKESGMTMEELKYSLELKKAELKAKLL
association rate constant ([1]; presence of calcium ions): ~10^5 M^−1 s−^1 | dissociation rate constant ([1]; presence of calcium ions): approximately 5×10^−4 s−^1 | Kd ([1]; presence of physiological calcium concentrations): 0.1 nM | drop in free protein S [2]: 90%
